Columns and labels:
[1] = system: C179DDD (Homo sapiens); test: EMSA; conditions: 0.66 nM RNA; yeast tRNA 0.1 mg/ml; 10 mM Tris-HCl pH 7, 30 mM NaCl, 2.5 mM MgCl2, 0.1% IGEPAL CA-630, 0.1 mg/ml yeast tRNA, 1.5% RNaseOUT, 0.2 mM EDTA, 0.2 mM DTT, 30 C 20 min; 0.8% agarose/TBE …
[2] = system: C179Δtail (Homo sapiens); test: EMSA; conditions: 0.66 nM RNA; yeast tRNA 0.1 mg/ml; 10 mM Tris-HCl pH 7, 30 mM NaCl, 2.5 mM MgCl2, 0.1% IGEPAL CA-630, 0.1 mg/ml yeast tRNA, 1.5% RNaseOUT, 0.2 mM EDTA, 0.2 mM DTT, 30 C 20 min; 0.8% agarose/TBE …

Xist repeat E RNA probe gave a binding signal (% probe shifted at 5 µM protein) [1] of 54 and a binding signal (% probe shifted at 5 µM protein) [2] of 2.
